Source: US20230108300A1 (University of Pennsylvania, published 2023)

Target: MART1 clone DMF4 TCR (includes the TCRvβ12 segment) expressed on SupT1 cells
Assay: cell-based or functional assay

B1: Vβ12-targeting CAR (construct not specified for the experiment) (other)
VH: EVMLVESGGGLVKPGGSLKLSCAASGFTFRSYAMSWVRQTPEKRLEWVATISSGGSYTNYPDSVKGRFTISRDNAKNTLNLQMNSLRSEDTAMYYCARGYHGYLDVWGAGTTVTVSS
VL: DILLTQSPAFLSVSPGERVSFSCRASQSIGTSIHWYQQRTNGSPRLLIKYASESFSGIPSRFSGSGSGTDFTLSISSVESEDIADYYCQQSYSWPYTFGGGTKLEIK
lysis of the target cell lines at three E:T ratios: ~100%
